B1: 6mer-2-104 (peptide)
peptide: RGVCRK
B2: 6mer-2-86 (peptide)
peptide: KQFRRK
B3: 6mer-2-111 (peptide)
peptide: KLIRRK
B4: 6mer-2-91 (peptide)
peptide: KWIYKR
B5: 6mer-2-93 (peptide)
peptide: RWQTRR
B6: 6mer-2-88 (peptide)
peptide: KSFQRR
B7: 6mer-2-108 (peptide)
peptide: RVVYKK
B8: 6mer-2-99 (peptide)
peptide: RQRSRR
B9: 6mer-2-98 (peptide)
peptide: RRQQRR
B10: 6mer-2-83 (peptide)
peptide: KQYQRR
B11: 6mer-2-89 (peptide)
peptide: KSRSKK
B12: 6mer-2-82 (peptide)
peptide: RGVQKK
B13: 6mer-2-97 (peptide)
peptide: RQFYRK
B14: 6mer-2-107 (peptide)
peptide: RGVYRK
B15: 6mer-2-105 (peptide)
peptide: RGFTRR
B16: 6mer-2-87 (peptide)
peptide: RRLTKR
B17: 6mer-2-92 (peptide)
peptide: KVVCKR
B18: 6mer-2-94 (peptide)
peptide: RLYQRK
B19: 6mer-2-101 (peptide)
peptide: RLICRK
B20: 6mer-2-103 (peptide)
peptide: RVVTKK
B21: 6mer-2-110 (peptide)
peptide: KSQLKK
B22: 6mer-2-106 (peptide)
peptide: RWVQRK
B23: 6mer-2-96 (peptide)
peptide: KWRQRK
B24: 6mer-2-84 (peptide)
peptide: KQRYKK
B25: 6mer-2-100 (peptide)
peptide: RRRCRR
B26: 6mer-2-85 (peptide)
peptide: KSQYKR
B27: 6mer-2-112 (peptide)
peptide: RLQQKR
B28: 6mer-2-95 (peptide)
peptide: RRIYRK
B29: 6mer-2-90 (peptide)
peptide: KGRTKR
B30: 6mer-2-102 (peptide)
peptide: KVYQKK
B31: 6mer-2-109 (peptide)
peptide: RRVYRK

The binders below were run against acetylcholine receptor (assay: SPR, peptide at 10 uM over immobilized acetylcholine receptor).

Binder	Binding affinity (RU)
B1	145 RU
B2	126 RU
B3	123 RU
B4	121 RU
B5	133 RU
B6	141 RU
B7	153 RU
B8	151 RU
B9	148 RU
B10	135 RU
B11	141 RU
B12	124 RU
B13	154 RU
B14	144 RU
B15	151 RU
B16	142 RU

Binder	Binding affinity (RU)
B17	131 RU
B18	126 RU
B19	154 RU
B20	136 RU
B21	153 RU
B22	123 RU
B23	154 RU
B24	139 RU
B25	142 RU
B26	137 RU
B27	142 RU
B28	142 RU
B29	133 RU
B30	139 RU
B31	144 RU

Source: patent US20250011363A1, “OPTIMIZED SHORTENED PEPTIDE THAT BINDS TO ACETYLCHOLINE RECEPTOR, AND USE THEREOF” (SKINMED CO., LTD., priority 2021, published 2025)
